Laboratory results published in patent US20030224463A1 (Dana-Farber, published 2003).

Target: T1, human MLH1 protein (hMLH1) (human, UniProt P40692 1-756, limits assumed)
T1 construct: Translated in vitro for the MBP-hPMS1 column assay
T1 sequence: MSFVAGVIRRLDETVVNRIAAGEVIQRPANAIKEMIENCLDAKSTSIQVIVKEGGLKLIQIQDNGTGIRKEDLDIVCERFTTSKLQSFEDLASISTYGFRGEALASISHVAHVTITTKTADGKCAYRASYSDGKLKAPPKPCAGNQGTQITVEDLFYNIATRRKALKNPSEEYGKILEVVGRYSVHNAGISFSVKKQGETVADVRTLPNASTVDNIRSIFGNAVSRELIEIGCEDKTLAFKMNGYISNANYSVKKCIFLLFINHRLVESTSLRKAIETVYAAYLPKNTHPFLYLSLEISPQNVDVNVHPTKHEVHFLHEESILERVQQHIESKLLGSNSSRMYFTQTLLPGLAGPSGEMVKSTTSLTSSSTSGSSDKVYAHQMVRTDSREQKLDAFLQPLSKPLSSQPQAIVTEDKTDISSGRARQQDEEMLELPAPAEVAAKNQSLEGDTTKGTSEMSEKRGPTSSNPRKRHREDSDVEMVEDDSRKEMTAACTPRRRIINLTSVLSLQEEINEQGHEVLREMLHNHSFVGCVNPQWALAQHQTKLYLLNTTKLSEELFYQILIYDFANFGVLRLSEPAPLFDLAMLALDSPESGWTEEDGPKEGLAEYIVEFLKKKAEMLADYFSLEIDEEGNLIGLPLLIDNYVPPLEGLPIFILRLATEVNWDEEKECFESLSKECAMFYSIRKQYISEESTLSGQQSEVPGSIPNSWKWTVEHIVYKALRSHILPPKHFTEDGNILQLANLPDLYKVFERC
Assay: yeast two-hybrid system

- binding result: binds
B1: human PMS1 protein (hPMS1) (other)
chain: MERAESSSTEPAKAIKPIDRKSVHQICSGQVVLSLSTAVKELVENSLDAGATNIDLKLKDYGVDLIEVSDNGCGVEEENFEGLTLKHHTSKIQEFADLTQVETFGFRGEALSSLCALSDVTISTCHASAKVGTRLMFDHNGKIIQKTPYPRPRGTTVSVQQLFSTLPVRHKEFQRNIKKEYAKMVQVLHAYCIISAGIRVSCTNQLGQGKRQPVVCIGGSPSIKENIGSVFGQKQLQSLIPFVQLPPSDSVCEEYGLSCSDALHNLFYISGFISQCTHGVGRSSTDRQFFFINRRPCDPAKVCRLVNEVYHMYNRHQYPFVVLNISVDSECVDINVTPDKRQILLQEEKLLLAVLKTSLIGMFDSDVNKLNVSQQPLLDVEGNLIKMHAADLEKPMVEHQDQSPSLRIGEEKKDVSISRLREAFSLRHTTENKPHSPKTPEPRRSPLGQKRGMLSSSTSGAISDKGVLRSQKEAVSSSHGPSDPTDRAEVEKDSGHGSTSVDSEGFSIPDTGSHCSSEYAASSPGDRGSQEHVDSQEKAPETDDSFSDVDCHSNQEDTGCKFRVLPQPINLATPNTKRFKKEEILSSSDICQKLVNTQDMSASQVDVAVKINKKVVPLDFSMSSLAKRIKQLHHEAQQSEGEQNYRKFRAKICPGENQAAEDELRKEISKTMFAEMEIIGQFNLGFIITKLNEDIFIVDQHATDEKYNFEMLQQHTVLQGQRLIAPQTLNLTAVNEAVLIENLEIFRKNGFDFVIDENAPVTERAKLISLPTSKNWTFGPQDVDELIFMLSDSPGVMCRPSRVKQMFASRACRKSVMIGTALNTSEMKKLITHMGEMGHPWNCPHGRPTMRHIANLGVISQN
notes: Synthesized in vitro for the MBP column assay
